What all share (assay): EMSA
(In general: Mobility shift assays separate free from complexed probe on a gel.)

Data set [1] deals with T1, GST-HuR (UniProt Q15717 1-326).
The target of data set [2] is T1, GST-HuR. This is another data set of the same source.
Data set [3] has as its target T1, GST-HuR. This is another data set of the same source.
Data set [4] deals with T1, GST-HuR. The source holds these as a separate data set.

Changes are numbered by the printed parent chain. Read-outs that look alike come from different tables or passages of the source.

T1 sequence (Q15717 whole entry): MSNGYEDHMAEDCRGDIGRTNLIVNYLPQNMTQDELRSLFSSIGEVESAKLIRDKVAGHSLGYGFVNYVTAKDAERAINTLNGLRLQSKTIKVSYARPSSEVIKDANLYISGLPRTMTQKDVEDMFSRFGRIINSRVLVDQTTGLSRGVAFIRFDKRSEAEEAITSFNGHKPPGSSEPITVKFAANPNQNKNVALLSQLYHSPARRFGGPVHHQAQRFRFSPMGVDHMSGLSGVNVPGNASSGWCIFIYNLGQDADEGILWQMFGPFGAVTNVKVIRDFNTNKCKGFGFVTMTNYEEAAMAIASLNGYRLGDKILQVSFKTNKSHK

B1: P1-1-mut3 (hinge U to C) (ssRNA)
RNA: GGGGAAAAGGGUUUAAACAGUUUGAAAUAUUCCGCCCCCACCCCCGUAAUAGUUA
Take B1: the binding result in data set [1] was “binds”.

B2: P1-3 (ssRNA)
RNA: GGGUACUGUGUUUGAUAAAUGUUGUCCAGGUUCACUUGCCAAGAAUGUGUUGUCUAAAAUG
For B2, in data set [2], the binding result is recorded as “no binding”.

B3: P2-1 (ssRNA)
RNA: GGGCCUGUUUAGUUUUCAAGGAUGGAACUCCACCCUUUACUUGGUUUUAAGU
Consider B3, for which, in data set [2], the binding result is on record as “no binding”.
The same measure, in the same setting: in the case of GGGAUAUCUGGCUGUCCUUUUUAUAAUGCAAAGUGAGAACUUUCCCUAC (ssRNA) [P1-2] it was “no binding”.

B4: P2-2 (ssRNA)
RNA: GGGAGUAUGUAUGGAAUGUUAUGAUAGGACAUAGUAAUAGUGGUCAGAUGUGGAAA
As for B4, the binding result in data set [2] was “no binding”.

B5: P1-1-mut1 (E1 U to C) (ssRNA)
RNA: GGGGAAAAGGGUUUAAACAGCCCGAAACACCCUGUCUUCAUUUCUGUAAUAGUUA
Turning to B5, the binding result in data set [3] is “no binding”.

B6: P1-1 (ssRNA)
RNA: B5 RNA with C21U, C22U, C23U, C28U, C30U, C31U
B6: in data set [2], the binding result is given as “binds”.

B7: P2-3 (ssRNA)
RNA: GGGAAAUGGUAGGGAGACAAAUAUACAUGUGAAAUAAACUCAGUAUUUUAAUAAAGU
For B7, the binding result in data set [2] is “no binding”.

B8: P1-1-mut2 (E2 U to C) (ssRNA)
RNA: GGGGAAAAGGGUUUAAACAGUUUGAAAUAUUCUGUCUUCAUUUCUGCAACAGCCA
On to B8, for which the binding result in data set [4] is recorded as “no binding”.

Source of the values: article PMC4074165.
